The source of these data is PMC5314347.

The labels stand for the following.
B1: ABHD5-luciferase(N) (alpha-beta hydrolase domain-containing 5, wild type) [mouse] / PLIN5-luciferase(C) (perilipin 5) [mouse] (parent)
chain 1: MKAMAAEEEVDSADAGGGSGWLTGWLPTWCPTSTSHLKEAEEKMLKCVPCTYKKEPVRISNGNRIWTLMFSHNISSKTPLVLLHGFGGGLGLWALNFEDLSTDRPVYAFDLLGFGRSSRPRFDSDAEEVENQFVESIEEWRCALRLDKMILLGHNLGGFLAAAYSLKYPSRVSHLILVEPWGFPERPDLADQERPIPVWIRALGAALTPFNPLAGLRIAGPFGLSLVQRLRPDFKRKYSSMFEDDTVTEYIYHCNVQTPSGETAFKNMTIPYGWAKRPMLQRIGGLHPDIPVSVIFGARSCIDGNSGTSIQSLRPKSYVKTIAILGAGHYVYADQPEEFNQKVKEICHTVD
chain 2: MDQRGEDTTLAPHSRMSGDQTAQDPGSSLGELDQQNVVNRVVALPLVKATCTAVSSAYNSAKDRHPLLGSACRLAEHCVCSVTTCALDHAQPLLEHLQPQLATVNDLACRGLDKLEEKLPFLQQPSDMVVTSAKDTVAKSVTGMVDLAQRGRRWSGELRRSMSQAMDMVLGKSEKLVDRFLPMTEAELAVLAAEAEGPEVGTVEEQRQQQGYFVRLGSLSARLRHLAYEHSLGKLRQSKHRTQEMLAQLQETLELIQHMQRGASPSPTFHPPKTQELWGSWSPCLENGRSHSEVELETLALSRSLTLELQNAVDALAGCVRGLPPSAQAKVAEVQRSVDALQATFADAHCLGDVAPTALAEGRGSVARAHACVDEFLDLVLRAMPLPWLVGPFAPILVEQSEPLINLATCVDEVVGDPDPRWAHMDWPAQKRAWEAESADPGGQEAEPPRGQGKHTMMPELDF
B2: ABHD5-luciferase(N) (alpha-beta hydrolase domain-containing 5, wild type) [mouse] / PLIN1-luciferase(C) (perilipin 1) [not stated] (parent)
chain 1: B1 chain 1
chain 2: MSMNKGPTLLDGDLPEQENVLQRVLQLPVVSGTCECFQKTYNSTKEAHPLVASVCNAYEKGVQGASNLAAWSMEPVVRRLSTQFTAANELACRGLDHLEEKIPALQYPPEKIASELKGTISTRLRSARNSISVPIASTSDKVLGATLAGCELALGMAKETAEYAANTRVGRLASGGADLALGSIEKVVEFLLPPDKESAPSSGRQRTQKAPKAKPSLVRRVSTLANTLSRHTMQTTAWALKQGHSLAMWIPGVAPLSSLAQWGASAAMQVVSRRQSEVRVPWLHNLAASQDESHDDQTDTEGEETDDEEEEEESEAEENVLREVTALPNPRGLLGGVVHTVQNTLRNTISAVTWAPAAVLGTVGRILHLTPAQAVSSTKGRAMSLSDALKGVTDNVVDTVVHYVPLPRLSLMEPESEFRDIDNPSAEAERKGSGARPASPESTPRPGQPRGSLRSVRGLSAPSCPGLDDKTEASARPGFLAMPREKPARRVSDSFFRPSVMEPILGRAQYSQLRKKS

In one test the parent is B1. Put plainly: luciferase protein complementation analysis, SR4995 dose-response. Conditions: with PLIN5-luciferase(C) (perilipin 5) [mouse]; SR4995 titrated from 1e-8.5 to 1e-4 M; mean ± SD; read off a plot.
With chain 1 MKAMAAEEEVDSADAGGGSGWLTGWLPTWCPTSTSHLKEAEEKMLKCVPCTYKKEPVRISNGNRIWTLMFSHNISSKTPLVLLHGFGGGLGLWALNFEDLSTDRPVYAFDLLGFGRSSRPRFDSDAEEVENQFVESIEEWRCALRLDKMILLGHNLGGFLAAAYSLKYPSRVSHLILVEPWGFPERPDLADQERPIPVWIRALGAALTPFNPLAGLRIAGPFGLSLVQRLRPDFKRKYSSMFEDDTVTEYIYHCNVQTPSGETAFKNMTIPYGWAKRPMLQRIGGLHPDIPVSVIFGARSCIDGNSGTSIQSLRPKSYVKTIAILGASHYVYADQPEEFNQKVKEICHTVD [chain 1 G328S], the IC50 (log10 M (log[SR4995])) was -7.2.
On to chain 1 MKAMAAEEEVDSADAGGGSGWLTGWLPTWCPTSTSHLKEAEEKMLKCVPCTYKKEPVRISNGNRIWTLMFSHNISSKTPLVLLHGFGGGLGLWALNFEDLSTDRPVYAFDLLGFGRSSRPRFDSDAEEVENQFVESIEEWRCALRLDKMILLGHNLGGFLAAAYSLKYPSRVSHLILVEPWGFPERPDLADQERPIPVWIRALGAALTPFNPLAGLRIAGPFGLSLVQRLRPDFKRKYSSMFEDDTVTEYIYHCNVQTPSGETAFKNMTIPYGWAKRPMLQRIGGLHPDIPVSVIFGANSCIDGNSGTSIQSLRPKSYVKTIAILGAGHYVYADQPEEFNQKVKEICHTVD [chain 1 R299N], for which the IC50 (log10 M (log[SR4995])) is -6.5.

In the next test the parent is B2. Described as above. The note with it: with PLIN1-luciferase(C) (perilipin 1); SR4995 titrated from 1e-8.5 to 1e-4 M; mean ± SD; read off a plot.
chain 1 MKAMAAEEEVDSADAGGGSGWLTGWLPTWCPTSTSHLKEAEEKMLKCVPCTYKKEPVRISNGNRIWTLMFSHNISSKTPLVLLHGFGGGLGLWALNFEDLSTDRPVYAFDLLGFGRSSRPRFDSDAEEVENQFVESIEEWRCALRLDKMILLGHNLGGFLAAAYSLKYPSRVSHLILVEPWGFPERPDLADQERPIPVWIRALGAALTPFNPLAGLRIAGPFGLSLVQRLRPDFKRKYSSMFEDDTVTEYIYHCNVQTPSGETAFKNMTIPYGWAKRPMLQRIGGLHPDIPVSVIFGANSCIDGNSGTSIQSLRPKSYVKTIAILGAGHYVYADQPEEFNQKVKEICHTVD [chain 1 R299N]: the IC50 (log10 M (log[SR4995])) was -6.7.
Same read-out and setting: for chain 1 MKAMAAEEEVDSADAGGGSGWLTGWLPTWCPTSTSHLKEAEEKMLKCVPCTYKKEPVRISNGNRIWTLMFSHNISSKTPLVLLHGFGGGLGLWALNFEDLSTDRPVYAFDLLGFGRSSRPRFDSDAEEVENQFVESIEEWRCALRLDKMILLGHNLGGFLAAAYSLKYPSRVSHLILVEPWGFPERPDLADQERPIPVWIRALGAALTPFNPLAGLRIAGPFGLSLVQRLRPDFKRKYSSMFEDDTVTEYIYHCNVQTPSGETAFKNMTIPYGWAKRPMLQRIGGLHPDIPVSVIFGARSCIDGNSGTSIQSLRPKSYVKTIAILGASHYVYADQPEEFNQKVKEICHTVD [chain 1 G328S] the value was -6.8.
